According to patent publication US20240190989A1 (BEIGENE SWITZERLAND, published 2024):

Key:
[1] = target: T1, cynoCEA (Cat. CE5-C52H5, Acrobiosystem) (cynomolgus monkey); assay: SPR, Monkey CEA
T1 construct: Bought protein; also called Monkey CEA

FcγRIIIAV158 = FcγRIIIAV158 (UniProt P08637 17-208); assay: ELISA-based FcγR binding, luminescence read-out (RLU)
FcγRIIIAF158 = FcγRIIIAF158 (UniProt P08637 17-208); assay: as above
FcγRIIIB = FcγRIIIB (UniProt O75015 17-200, limits assumed); assay: as above
Chain of FcγRIIIB (O75015 17-200 limits assumed): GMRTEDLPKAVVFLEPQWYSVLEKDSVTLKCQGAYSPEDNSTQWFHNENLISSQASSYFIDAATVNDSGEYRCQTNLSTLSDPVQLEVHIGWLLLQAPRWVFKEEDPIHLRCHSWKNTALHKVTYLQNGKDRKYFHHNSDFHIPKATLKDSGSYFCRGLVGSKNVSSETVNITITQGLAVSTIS

FcγRI = FcγRI (UniProt P12314 16-288, limits assumed); assay: as above
Chain of FcγRI (P12314 16-288 limits assumed): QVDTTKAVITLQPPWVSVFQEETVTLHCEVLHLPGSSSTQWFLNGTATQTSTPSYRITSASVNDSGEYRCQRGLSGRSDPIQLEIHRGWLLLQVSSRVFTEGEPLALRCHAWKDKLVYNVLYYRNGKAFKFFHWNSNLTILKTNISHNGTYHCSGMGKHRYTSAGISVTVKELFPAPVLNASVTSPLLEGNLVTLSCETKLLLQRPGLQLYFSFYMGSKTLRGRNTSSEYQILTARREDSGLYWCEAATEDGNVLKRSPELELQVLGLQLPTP

FcγRIIAR131 = target: T2, FcγRIIAR131 (UniProt P12318 34-218); assay: as above
T2 sequence (looked up): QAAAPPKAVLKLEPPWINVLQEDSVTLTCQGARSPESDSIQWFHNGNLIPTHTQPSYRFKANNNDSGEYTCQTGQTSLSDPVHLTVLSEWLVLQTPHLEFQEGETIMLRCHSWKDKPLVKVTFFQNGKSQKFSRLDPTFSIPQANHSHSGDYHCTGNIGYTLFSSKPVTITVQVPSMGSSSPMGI

FcγRIIB = target: T3, FcγRIIB (UniProt P31994 43-217, limits assumed); assay: as above
T3 sequence (looked up): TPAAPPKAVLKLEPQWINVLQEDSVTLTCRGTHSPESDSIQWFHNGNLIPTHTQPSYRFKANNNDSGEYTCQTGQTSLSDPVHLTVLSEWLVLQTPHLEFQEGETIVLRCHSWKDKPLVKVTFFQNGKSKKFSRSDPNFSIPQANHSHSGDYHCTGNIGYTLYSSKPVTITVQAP

FcγRIIAH131 = target: T4, FcγRIIAH131 (UniProt P12318 34-218); assay: as above
T4 sequence (looked up): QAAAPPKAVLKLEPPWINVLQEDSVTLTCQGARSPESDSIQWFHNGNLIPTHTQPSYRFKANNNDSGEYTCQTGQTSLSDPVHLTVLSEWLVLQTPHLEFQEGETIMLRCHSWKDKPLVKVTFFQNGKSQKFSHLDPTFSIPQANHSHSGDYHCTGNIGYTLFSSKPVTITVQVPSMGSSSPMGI

[2] = target: T5, soluble human CEA, amino acids 1-687 of huCEA with C-terminal 6xHis tag (human, UniProt P06731 35-687); assay: SPR, Human CEA
T5 construct: also called sCEA; soluble huCEA
T5 sequence: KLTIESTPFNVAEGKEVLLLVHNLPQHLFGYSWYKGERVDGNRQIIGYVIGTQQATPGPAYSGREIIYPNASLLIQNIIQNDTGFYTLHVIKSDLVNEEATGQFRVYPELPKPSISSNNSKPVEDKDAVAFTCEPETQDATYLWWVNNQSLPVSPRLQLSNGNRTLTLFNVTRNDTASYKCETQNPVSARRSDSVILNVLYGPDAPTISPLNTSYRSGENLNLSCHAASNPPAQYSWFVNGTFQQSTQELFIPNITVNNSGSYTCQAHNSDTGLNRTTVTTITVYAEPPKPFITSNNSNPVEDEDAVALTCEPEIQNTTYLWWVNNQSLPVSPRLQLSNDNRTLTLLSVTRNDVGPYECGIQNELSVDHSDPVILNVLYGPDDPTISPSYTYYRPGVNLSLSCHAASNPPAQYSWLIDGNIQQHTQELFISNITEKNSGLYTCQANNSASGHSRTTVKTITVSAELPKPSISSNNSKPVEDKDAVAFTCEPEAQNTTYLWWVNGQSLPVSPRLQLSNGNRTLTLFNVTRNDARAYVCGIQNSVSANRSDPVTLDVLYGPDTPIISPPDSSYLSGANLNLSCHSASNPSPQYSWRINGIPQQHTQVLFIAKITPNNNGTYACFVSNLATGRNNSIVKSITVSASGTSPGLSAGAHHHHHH

[3] = target: T5, soluble human CEA, amino acids 1-687 of …; assay: antigen ELISA on huCEA (CEA/His), two batches of BE-146 [panel A]
[4] = target: T6, mouse CD137 (recombinant protein, SPR) (mouse, UniProt P20334 24-187, limits assumed); assay: SPR
T6 construct: also called murine CD137
T6 sequence (looked up): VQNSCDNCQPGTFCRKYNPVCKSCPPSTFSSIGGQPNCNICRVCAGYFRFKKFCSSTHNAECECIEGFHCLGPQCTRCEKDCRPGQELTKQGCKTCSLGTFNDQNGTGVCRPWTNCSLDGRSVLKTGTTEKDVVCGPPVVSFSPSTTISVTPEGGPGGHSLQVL

Chain of FcγRIIIAV158 (P08637 17-208 F176V): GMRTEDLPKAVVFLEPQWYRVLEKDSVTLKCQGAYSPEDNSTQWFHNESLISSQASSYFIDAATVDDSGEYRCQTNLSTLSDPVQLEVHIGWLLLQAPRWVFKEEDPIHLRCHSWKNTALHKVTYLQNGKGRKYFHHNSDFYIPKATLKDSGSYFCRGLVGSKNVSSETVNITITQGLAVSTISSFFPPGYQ
Chain of FcγRIIIAF158 (P08637 17-208): as the sequence (P08637 17-208 F176V) above, with V160F counted along it

- Kd [1]: 11.4 nM
- koff [1]: 0.000717 s⁻¹
- kon [1]: 63000 M⁻¹ s⁻¹
- binding result (FcγRIIIAV158): no binding (tested: not shown)
- binding result (FcγRIIIAF158): no binding (tested: not shown)
- binding result (FcγRIIIB): no binding (tested: not shown)
- binding result (FcγRI): no binding (tested: not shown)
- binding result (FcγRIIAR131): no binding (tested: not shown)
- binding result (FcγRIIB): no binding (tested: not shown)
- binding result (FcγRIIAH131): no binding (tested: not shown)
- Kd [2]: 3 nM
- koff [2]: 0.000295 s⁻¹
- kon [2]: 98500 M⁻¹ s⁻¹
- EC50 (read off the curve) [3]: ~0.07 mg/L
- binding result [4]: no binding
B1: BE-146 (CEAxCD137 multispecific antibody) (bispecific antibody, human IgG1, kappa)
heavy: QVQLVQSGAEVKKPGASVKVSCKASGYIFTSYYLHWVRQAPGQGLEWIGYINPQTGKTSYAQKFQGRVTMTRDTSTSTVYMELSSLRSEDTAVYYCAREYGNYNYPLDYWGQGTLVTVSSASTKGPSVFPLAPSSKSTSGGTAALGCLVKDYFPEPVTVSWNSGALTSGVHTFPAVLQSSGLYSLSSVVTVPSSSLGTQTYICNVNHKPSNTKVDKKVEPKSCDKTHTCPPCPAPPAAGPSVFLFPPKPKDTLMISRTPEVTCVVVDVSHEDPEVKFNWYVDGVEVHNAKTKPREEQYNSTYRVVSVLTVLHQDWLNGKEYKCKVSNKALAAPIEKTISKAKGQPREPQVYTLPPSREEMTKNQVSLTCLVKGFYPSDIAVEWESNGQPENNYKTTPPVLDSDGSFFLYSKLTVDKSRWQQGNVFSCSVMHEALHNHYTQKSLSLSPGKGGGGSEVQLLESGGGLVQPGGSLRLSCAASGFTVSAEDVGWVRQAPGKGLEWVSAILDKGGSTYYAESVKGRFTISRDNAKNTLYLQMSSLRAEDTAVYYCARIVYHAGGGVTFDTRGQGTQVTVSS
light: DIQMTQSPSSLSASVGDRVTITCRASENQYGYLAWYQQKPGKVPKLLIYNYKNLVEGVPSRFSGSGSGTDFTLTISSLQPEDVATYYCQHHLGTPYTFGQGTKVEIKRTVAAPSVFIFPPSDEQLKSGTASVVCLLNNFYPREAKVQWKVDNALQSGNSQESVTEQDSKDSTYSLSSTLTLSKADYEKHKVYACEVTHQGLSSPVTKSFNRGEC
notes: Module ratio 2:2, Fc null version of huIgG1; copies: 2 + 2
